Data taken from the supplement of paper PMC10266784.

B1: library; numbered along this chain (parent)
chain: MAAAAAAAAEQQSSNGPVKKSMREKAVERRSVNKEHNSNFKAGYIPIDEDRLHKTGLRGRKGNLAICVIILLFILAVINLIITLVIWAVIRIGPNGCDSMEFHESGLLRFKQVSDMGVIHPLYKSTVGGRRNENLVITGNNQPIVFQQGTTKLSVENNKTSITSDIGMQFFDPRTQNILFSTDYETHEFHLPSGVKSLNVQKASTERITSNATSDLNIKVDGRAIVRGNEGVFIMGKTIEFHMGGNMELKAENSIILNGSVMVSTTRLPSSSSGDQLGSGDWVRYKLCMCADGTLFKVQVTSQNMGCQISDNPCGNTH

Variants of: B1
Assay: SGCB cell-surface expression functional score (HA stain, bin4 vs bin1, normalised to synonymous) (log10 ratio); higher = more cell-surface SGCB (functional)
Protocol: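 Deep mutational scan of full-length human SGCB (YFP-SGCB-HA, NNN codon sublibraries A-F) delivered by lentivirus at low MOI into ADG-HEK293 cells stably expressing SGCA, SGCD and SGCG. YFP-positive cells were stained for surface HA on unpermeabilized cells and FACS-sorted into bins. The functional score is log10(frequency in high bin 4 / frequency in low bin 1), normalised per chunk so that synonymous variants have mean 0 and SD 0.5. Scores are the median over codons and over duplicate biological replicates; scores below -0.5 are called non-functional. Scale: negative means deleterious.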

Row | Variant | SGCB cell-surface expression functional score (log10)
1 | MFAAAAAAAEQQSSNGPVKKSMREKAVERRSVNKEHNSNFKAGYIPIDEDRLHKTGLRGRKGNLAICVIILLFILAVINLIITLVIWAVIRIGPNGCDSMEFHESGLLRFKQVSDMGVIHPLYKSTVGGRRNENLVITGNNQPIVFQQGTTKLSVENNKTSITSDIGMQFFDPRTQNILFSTDYETHEFHLPSGVKSLNVQKASTERITSNATSDLNIKVDGRAIVRGNEGVFIMGKTIEFHMGGNMELKAENSIILNGSVMVSTTRLPSSSSGDQLGSGDWVRYKLCMCADGTLFKVQVTSQNMGCQISDNPCGNTH [A2F] | -0.48
2 | MKAAAAAAAEQQSSNGPVKKSMREKAVERRSVNKEHNSNFKAGYIPIDEDRLHKTGLRGRKGNLAICVIILLFILAVINLIITLVIWAVIRIGPNGCDSMEFHESGLLRFKQVSDMGVIHPLYKSTVGGRRNENLVITGNNQPIVFQQGTTKLSVENNKTSITSDIGMQFFDPRTQNILFSTDYETHEFHLPSGVKSLNVQKASTERITSNATSDLNIKVDGRAIVRGNEGVFIMGKTIEFHMGGNMELKAENSIILNGSVMVSTTRLPSSSSGDQLGSGDWVRYKLCMCADGTLFKVQVTSQNMGCQISDNPCGNTH [A2K] | 0.23
3 | MGAAAAAAAEQQSSNGPVKKSMREKAVERRSVNKEHNSNFKAGYIPIDEDRLHKTGLRGRKGNLAICVIILLFILAVINLIITLVIWAVIRIGPNGCDSMEFHESGLLRFKQVSDMGVIHPLYKSTVGGRRNENLVITGNNQPIVFQQGTTKLSVENNKTSITSDIGMQFFDPRTQNILFSTDYETHEFHLPSGVKSLNVQKASTERITSNATSDLNIKVDGRAIVRGNEGVFIMGKTIEFHMGGNMELKAENSIILNGSVMVSTTRLPSSSSGDQLGSGDWVRYKLCMCADGTLFKVQVTSQNMGCQISDNPCGNTH [A2G] | 0.17
4 | MDAAAAAAAEQQSSNGPVKKSMREKAVERRSVNKEHNSNFKAGYIPIDEDRLHKTGLRGRKGNLAICVIILLFILAVINLIITLVIWAVIRIGPNGCDSMEFHESGLLRFKQVSDMGVIHPLYKSTVGGRRNENLVITGNNQPIVFQQGTTKLSVENNKTSITSDIGMQFFDPRTQNILFSTDYETHEFHLPSGVKSLNVQKASTERITSNATSDLNIKVDGRAIVRGNEGVFIMGKTIEFHMGGNMELKAENSIILNGSVMVSTTRLPSSSSGDQLGSGDWVRYKLCMCADGTLFKVQVTSQNMGCQISDNPCGNTH [A2D] | -0.07
5 | MLAAAAAAAEQQSSNGPVKKSMREKAVERRSVNKEHNSNFKAGYIPIDEDRLHKTGLRGRKGNLAICVIILLFILAVINLIITLVIWAVIRIGPNGCDSMEFHESGLLRFKQVSDMGVIHPLYKSTVGGRRNENLVITGNNQPIVFQQGTTKLSVENNKTSITSDIGMQFFDPRTQNILFSTDYETHEFHLPSGVKSLNVQKASTERITSNATSDLNIKVDGRAIVRGNEGVFIMGKTIEFHMGGNMELKAENSIILNGSVMVSTTRLPSSSSGDQLGSGDWVRYKLCMCADGTLFKVQVTSQNMGCQISDNPCGNTH [A2L] | 0.2
6 | MEAAAAAAAEQQSSNGPVKKSMREKAVERRSVNKEHNSNFKAGYIPIDEDRLHKTGLRGRKGNLAICVIILLFILAVINLIITLVIWAVIRIGPNGCDSMEFHESGLLRFKQVSDMGVIHPLYKSTVGGRRNENLVITGNNQPIVFQQGTTKLSVENNKTSITSDIGMQFFDPRTQNILFSTDYETHEFHLPSGVKSLNVQKASTERITSNATSDLNIKVDGRAIVRGNEGVFIMGKTIEFHMGGNMELKAENSIILNGSVMVSTTRLPSSSSGDQLGSGDWVRYKLCMCADGTLFKVQVTSQNMGCQISDNPCGNTH [A2E] | -0.61
7 | MMAAAAAAAEQQSSNGPVKKSMREKAVERRSVNKEHNSNFKAGYIPIDEDRLHKTGLRGRKGNLAICVIILLFILAVINLIITLVIWAVIRIGPNGCDSMEFHESGLLRFKQVSDMGVIHPLYKSTVGGRRNENLVITGNNQPIVFQQGTTKLSVENNKTSITSDIGMQFFDPRTQNILFSTDYETHEFHLPSGVKSLNVQKASTERITSNATSDLNIKVDGRAIVRGNEGVFIMGKTIEFHMGGNMELKAENSIILNGSVMVSTTRLPSSSSGDQLGSGDWVRYKLCMCADGTLFKVQVTSQNMGCQISDNPCGNTH [A2M] | 0.02
8 | MHAAAAAAAEQQSSNGPVKKSMREKAVERRSVNKEHNSNFKAGYIPIDEDRLHKTGLRGRKGNLAICVIILLFILAVINLIITLVIWAVIRIGPNGCDSMEFHESGLLRFKQVSDMGVIHPLYKSTVGGRRNENLVITGNNQPIVFQQGTTKLSVENNKTSITSDIGMQFFDPRTQNILFSTDYETHEFHLPSGVKSLNVQKASTERITSNATSDLNIKVDGRAIVRGNEGVFIMGKTIEFHMGGNMELKAENSIILNGSVMVSTTRLPSSSSGDQLGSGDWVRYKLCMCADGTLFKVQVTSQNMGCQISDNPCGNTH [A2H] | 0.34
9 | MCAAAAAAAEQQSSNGPVKKSMREKAVERRSVNKEHNSNFKAGYIPIDEDRLHKTGLRGRKGNLAICVIILLFILAVINLIITLVIWAVIRIGPNGCDSMEFHESGLLRFKQVSDMGVIHPLYKSTVGGRRNENLVITGNNQPIVFQQGTTKLSVENNKTSITSDIGMQFFDPRTQNILFSTDYETHEFHLPSGVKSLNVQKASTERITSNATSDLNIKVDGRAIVRGNEGVFIMGKTIEFHMGGNMELKAENSIILNGSVMVSTTRLPSSSSGDQLGSGDWVRYKLCMCADGTLFKVQVTSQNMGCQISDNPCGNTH [A2C] | 0.1
10 | MIAAAAAAAEQQSSNGPVKKSMREKAVERRSVNKEHNSNFKAGYIPIDEDRLHKTGLRGRKGNLAICVIILLFILAVINLIITLVIWAVIRIGPNGCDSMEFHESGLLRFKQVSDMGVIHPLYKSTVGGRRNENLVITGNNQPIVFQQGTTKLSVENNKTSITSDIGMQFFDPRTQNILFSTDYETHEFHLPSGVKSLNVQKASTERITSNATSDLNIKVDGRAIVRGNEGVFIMGKTIEFHMGGNMELKAENSIILNGSVMVSTTRLPSSSSGDQLGSGDWVRYKLCMCADGTLFKVQVTSQNMGCQISDNPCGNTH [A2I] | 0.13
